Tests used:
Experiment in all cases: cell-based or functional assay
FGFR4 (h) (human) = FGFR4 (h) (human) (UniProt P22455)
Met(D1246H) (h) (human) = Met(D1246H) (h) (human) (UniProt P08581)
NLK (h) (human) = biological target: T1, NLK (h) (human) (UniProt Q9UBE8)
T1 sequence (looked up): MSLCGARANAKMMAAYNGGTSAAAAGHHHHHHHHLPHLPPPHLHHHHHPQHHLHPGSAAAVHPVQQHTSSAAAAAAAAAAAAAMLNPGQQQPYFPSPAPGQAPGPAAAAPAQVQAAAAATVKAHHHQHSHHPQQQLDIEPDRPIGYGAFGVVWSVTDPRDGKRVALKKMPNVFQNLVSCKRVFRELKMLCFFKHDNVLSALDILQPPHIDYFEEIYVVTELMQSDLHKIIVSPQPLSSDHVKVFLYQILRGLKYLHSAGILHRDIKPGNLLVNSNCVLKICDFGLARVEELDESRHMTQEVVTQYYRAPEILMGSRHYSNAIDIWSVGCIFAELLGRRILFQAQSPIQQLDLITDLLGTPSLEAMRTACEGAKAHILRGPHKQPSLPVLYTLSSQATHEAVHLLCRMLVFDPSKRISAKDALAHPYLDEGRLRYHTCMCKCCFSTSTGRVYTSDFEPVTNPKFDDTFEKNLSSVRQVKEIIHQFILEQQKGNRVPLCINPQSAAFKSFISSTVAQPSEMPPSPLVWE

MRCKβ (h) (human) = MRCKβ (h) (human) (UniProt Q9Y5S2)
PKD2 (h) (human) = biological target: T2, PKD2 (h) (human) (UniProt Q9BZL6)
T2 sequence (looked up): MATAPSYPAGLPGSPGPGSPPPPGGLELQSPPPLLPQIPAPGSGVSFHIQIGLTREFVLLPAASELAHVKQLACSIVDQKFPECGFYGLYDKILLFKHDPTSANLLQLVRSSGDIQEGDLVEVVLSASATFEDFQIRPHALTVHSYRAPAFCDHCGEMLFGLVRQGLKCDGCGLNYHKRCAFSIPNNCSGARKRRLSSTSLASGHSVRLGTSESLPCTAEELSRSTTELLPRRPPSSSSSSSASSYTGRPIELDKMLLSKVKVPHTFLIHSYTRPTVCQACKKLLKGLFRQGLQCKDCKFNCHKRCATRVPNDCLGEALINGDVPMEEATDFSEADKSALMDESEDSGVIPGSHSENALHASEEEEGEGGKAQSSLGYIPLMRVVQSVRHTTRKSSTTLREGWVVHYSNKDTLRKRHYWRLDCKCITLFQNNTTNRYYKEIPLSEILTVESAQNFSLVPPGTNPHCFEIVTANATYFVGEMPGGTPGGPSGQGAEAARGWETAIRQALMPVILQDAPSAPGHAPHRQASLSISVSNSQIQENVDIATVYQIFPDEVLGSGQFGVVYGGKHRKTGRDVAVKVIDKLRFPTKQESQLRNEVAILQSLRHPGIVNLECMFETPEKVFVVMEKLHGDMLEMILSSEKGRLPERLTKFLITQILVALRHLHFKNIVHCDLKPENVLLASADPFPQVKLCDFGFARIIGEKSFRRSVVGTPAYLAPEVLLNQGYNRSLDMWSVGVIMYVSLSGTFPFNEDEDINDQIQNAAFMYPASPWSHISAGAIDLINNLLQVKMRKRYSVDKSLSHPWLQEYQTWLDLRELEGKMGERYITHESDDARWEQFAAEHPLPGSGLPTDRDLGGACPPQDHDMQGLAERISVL

ZAP-70 (h) (human) = ZAP-70 (h) (human) (UniProt P43403)
MSSK1 (h) (human) = MSSK1 (h) (human) (UniProt Q9UPE1)
PKCγ (h) (human) = PKCγ (h) (human) (UniProt P05129)
Abl (M351T) (h) (human) = Abl (M351T) (h) (human) (UniProt P00519)
CK2 (h) (human) = CK2 (h) (human) (UniProt P68400)
IRAK1 (h) (human) = IRAK1 (h) (human) (UniProt P51617)
Arg (h) (human) = Arg (h) (human) (UniProt P42684)
IKKα (h) (human) = biological target: T3, IKKα (h) (human) (UniProt O15111)
T3 sequence (looked up): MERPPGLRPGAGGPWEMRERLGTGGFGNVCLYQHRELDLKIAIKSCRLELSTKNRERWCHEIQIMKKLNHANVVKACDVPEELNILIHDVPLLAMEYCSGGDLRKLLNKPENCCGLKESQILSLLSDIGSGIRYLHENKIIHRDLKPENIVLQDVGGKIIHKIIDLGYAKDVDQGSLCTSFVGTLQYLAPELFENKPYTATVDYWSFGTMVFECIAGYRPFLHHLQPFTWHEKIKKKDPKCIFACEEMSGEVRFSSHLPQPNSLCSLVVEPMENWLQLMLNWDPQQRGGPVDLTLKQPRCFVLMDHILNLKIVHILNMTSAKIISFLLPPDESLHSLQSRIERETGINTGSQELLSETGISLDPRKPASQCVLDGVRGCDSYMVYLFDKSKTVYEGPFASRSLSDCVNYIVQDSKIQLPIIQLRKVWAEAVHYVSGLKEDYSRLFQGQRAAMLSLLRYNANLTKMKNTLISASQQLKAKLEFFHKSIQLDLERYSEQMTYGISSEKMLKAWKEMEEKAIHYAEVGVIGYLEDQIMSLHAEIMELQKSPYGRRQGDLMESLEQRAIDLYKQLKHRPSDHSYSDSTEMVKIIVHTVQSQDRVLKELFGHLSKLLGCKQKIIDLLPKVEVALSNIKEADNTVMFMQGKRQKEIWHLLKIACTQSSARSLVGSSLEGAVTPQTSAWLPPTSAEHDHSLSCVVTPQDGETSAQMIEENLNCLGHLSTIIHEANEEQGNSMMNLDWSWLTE

FGFR4 (h) (human), sequence (P22455 460-802 limits assumed): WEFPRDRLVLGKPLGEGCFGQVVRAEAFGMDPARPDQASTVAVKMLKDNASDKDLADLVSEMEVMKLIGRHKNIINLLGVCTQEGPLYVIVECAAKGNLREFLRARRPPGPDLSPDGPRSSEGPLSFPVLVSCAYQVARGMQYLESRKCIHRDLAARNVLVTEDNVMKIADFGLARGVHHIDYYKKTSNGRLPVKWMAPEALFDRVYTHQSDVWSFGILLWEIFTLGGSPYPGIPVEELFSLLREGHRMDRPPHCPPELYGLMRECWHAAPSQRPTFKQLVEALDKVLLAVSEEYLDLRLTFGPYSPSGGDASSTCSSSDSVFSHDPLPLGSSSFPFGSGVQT
Abl (M351T) (h) (human), sequence (P00519 27-1130 M351T limits assumed): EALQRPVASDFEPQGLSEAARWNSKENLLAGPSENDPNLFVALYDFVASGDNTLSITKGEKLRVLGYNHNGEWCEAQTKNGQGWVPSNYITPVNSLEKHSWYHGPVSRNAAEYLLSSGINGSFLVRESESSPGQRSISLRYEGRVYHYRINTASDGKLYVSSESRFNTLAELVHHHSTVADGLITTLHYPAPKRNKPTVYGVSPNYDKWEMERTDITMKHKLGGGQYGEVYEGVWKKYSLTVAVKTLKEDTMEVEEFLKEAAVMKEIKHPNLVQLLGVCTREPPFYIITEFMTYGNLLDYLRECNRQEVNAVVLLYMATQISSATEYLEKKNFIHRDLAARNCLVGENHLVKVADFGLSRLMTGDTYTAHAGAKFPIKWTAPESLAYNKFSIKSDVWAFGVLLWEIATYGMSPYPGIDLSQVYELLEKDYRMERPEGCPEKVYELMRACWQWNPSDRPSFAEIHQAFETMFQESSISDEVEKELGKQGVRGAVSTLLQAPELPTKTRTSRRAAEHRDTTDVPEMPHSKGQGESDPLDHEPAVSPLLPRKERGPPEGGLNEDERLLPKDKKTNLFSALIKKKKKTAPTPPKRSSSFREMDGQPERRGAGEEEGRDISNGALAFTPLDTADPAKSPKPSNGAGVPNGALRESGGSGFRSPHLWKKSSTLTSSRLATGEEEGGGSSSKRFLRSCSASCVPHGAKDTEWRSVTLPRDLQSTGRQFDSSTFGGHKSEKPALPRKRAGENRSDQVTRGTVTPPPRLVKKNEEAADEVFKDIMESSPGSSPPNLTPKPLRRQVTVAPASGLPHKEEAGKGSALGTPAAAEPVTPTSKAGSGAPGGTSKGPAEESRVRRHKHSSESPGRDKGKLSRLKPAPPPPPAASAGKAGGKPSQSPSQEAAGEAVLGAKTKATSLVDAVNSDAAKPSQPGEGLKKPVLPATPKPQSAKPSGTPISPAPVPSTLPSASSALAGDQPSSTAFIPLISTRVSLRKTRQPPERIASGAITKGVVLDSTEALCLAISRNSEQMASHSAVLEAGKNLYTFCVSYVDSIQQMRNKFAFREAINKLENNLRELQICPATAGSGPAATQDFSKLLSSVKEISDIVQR
ZAP-70 (h) (human), sequence (P43403 whole entry): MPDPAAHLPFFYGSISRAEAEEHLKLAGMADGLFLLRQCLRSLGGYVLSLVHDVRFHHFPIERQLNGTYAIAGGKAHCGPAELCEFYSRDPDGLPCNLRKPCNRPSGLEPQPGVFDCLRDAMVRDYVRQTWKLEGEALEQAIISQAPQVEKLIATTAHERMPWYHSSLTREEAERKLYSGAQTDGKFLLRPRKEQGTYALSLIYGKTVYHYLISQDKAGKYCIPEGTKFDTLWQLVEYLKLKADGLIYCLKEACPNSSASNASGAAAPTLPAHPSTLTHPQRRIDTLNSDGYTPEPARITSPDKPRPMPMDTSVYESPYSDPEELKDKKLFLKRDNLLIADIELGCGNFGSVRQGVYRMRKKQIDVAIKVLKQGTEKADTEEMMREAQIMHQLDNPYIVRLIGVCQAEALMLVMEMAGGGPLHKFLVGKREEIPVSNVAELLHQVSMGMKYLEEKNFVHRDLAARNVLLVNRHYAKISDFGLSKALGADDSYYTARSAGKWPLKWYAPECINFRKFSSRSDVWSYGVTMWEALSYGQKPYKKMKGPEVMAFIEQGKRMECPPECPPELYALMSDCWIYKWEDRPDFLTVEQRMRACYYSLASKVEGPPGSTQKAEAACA
MRCKβ (h) (human), sequence (Q9Y5S2 1-473 limits assumed): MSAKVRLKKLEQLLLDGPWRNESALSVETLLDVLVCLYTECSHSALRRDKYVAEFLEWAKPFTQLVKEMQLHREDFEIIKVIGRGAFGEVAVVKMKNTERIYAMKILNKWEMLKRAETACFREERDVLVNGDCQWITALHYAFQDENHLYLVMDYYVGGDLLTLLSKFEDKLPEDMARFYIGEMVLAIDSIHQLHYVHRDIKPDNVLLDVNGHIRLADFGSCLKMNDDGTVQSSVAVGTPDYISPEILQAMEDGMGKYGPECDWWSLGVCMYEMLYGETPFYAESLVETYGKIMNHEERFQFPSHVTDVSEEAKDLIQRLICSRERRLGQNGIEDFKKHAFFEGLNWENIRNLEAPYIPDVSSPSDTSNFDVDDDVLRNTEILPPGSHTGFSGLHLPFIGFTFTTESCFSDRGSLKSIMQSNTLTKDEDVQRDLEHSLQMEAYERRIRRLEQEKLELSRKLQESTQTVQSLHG
Arg (h) (human), sequence (P42684 38-1182 limits assumed): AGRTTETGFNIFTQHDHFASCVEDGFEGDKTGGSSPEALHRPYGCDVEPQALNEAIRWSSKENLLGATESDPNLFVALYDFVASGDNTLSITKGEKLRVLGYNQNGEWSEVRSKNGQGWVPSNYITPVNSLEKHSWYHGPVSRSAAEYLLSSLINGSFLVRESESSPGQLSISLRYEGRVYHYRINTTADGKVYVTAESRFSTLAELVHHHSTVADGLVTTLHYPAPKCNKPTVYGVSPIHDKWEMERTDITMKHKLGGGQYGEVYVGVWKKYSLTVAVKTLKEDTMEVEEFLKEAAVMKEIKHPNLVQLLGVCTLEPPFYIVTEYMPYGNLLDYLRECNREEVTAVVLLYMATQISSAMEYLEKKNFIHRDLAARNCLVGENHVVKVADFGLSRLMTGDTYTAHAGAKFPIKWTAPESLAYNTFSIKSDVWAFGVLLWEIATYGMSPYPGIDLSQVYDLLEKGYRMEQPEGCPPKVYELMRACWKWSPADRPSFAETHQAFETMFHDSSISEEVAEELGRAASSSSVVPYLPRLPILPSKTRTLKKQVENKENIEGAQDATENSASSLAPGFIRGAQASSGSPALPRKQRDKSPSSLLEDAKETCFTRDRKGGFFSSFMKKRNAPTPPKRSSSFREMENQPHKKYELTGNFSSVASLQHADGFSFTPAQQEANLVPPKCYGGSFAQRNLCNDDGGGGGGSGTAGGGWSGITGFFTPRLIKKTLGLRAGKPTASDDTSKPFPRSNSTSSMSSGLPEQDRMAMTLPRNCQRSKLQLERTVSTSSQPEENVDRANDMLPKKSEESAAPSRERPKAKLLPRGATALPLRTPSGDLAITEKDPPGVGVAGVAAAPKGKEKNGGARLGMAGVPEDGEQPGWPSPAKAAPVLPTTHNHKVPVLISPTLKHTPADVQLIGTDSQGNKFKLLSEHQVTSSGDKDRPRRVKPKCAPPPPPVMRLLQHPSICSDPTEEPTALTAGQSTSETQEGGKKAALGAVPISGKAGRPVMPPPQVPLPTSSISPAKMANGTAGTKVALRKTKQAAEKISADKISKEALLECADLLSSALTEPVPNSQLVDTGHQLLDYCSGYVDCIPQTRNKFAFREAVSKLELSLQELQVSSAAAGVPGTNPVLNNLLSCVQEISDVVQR

% activity at 100 µM (FGFR4 (h) (human)): 28%
% activity at 100 µM (Met(D1246H) (h) (human)): 125%
% activity at 100 µM (NLK (h) (human)): 87%
% activity at 100 µM (MRCKβ (h) (human)): 83%
% activity at 100 µM (PKD2 (h) (human)): 33%
% activity at 100 µM (ZAP-70 (h) (human)): 75%
% activity at 100 µM (MSSK1 (h) (human)): 77%
% activity at 100 µM (PKCγ (h) (human)): 89%
% activity at 100 µM (Abl (M351T) (h) (human)): 90%
% activity at 100 µM (CK2 (h) (human)): 90%
% activity at 100 µM (IRAK1 (h) (human)): 95%
% activity at 100 µM (Arg (h) (human)): 72%
% activity at 100 µM (IKKα (h) (human)): 93%
Substance: MMI-0300 (peptide)
